In assay [1] the target is T1, recombinant human Tie2 extracellular domain (human, UniProt Q02763 23-748).
T1 construct: whole entry named; also called Recombinant human Tie2 ECD; hu Tie2
As to the kind of experiment: SPR multi-cycle kinetics, IgG captured, kinetic analysis. How it is done: Binding to 300 nM and 1500 nM recombinant Tie2 was analyzed at 37° C. using a Single Cycle Kinetics method with a contact time of 60 seconds, a dissociation time of 120 seconds and a flow rate of 50 μl/min. Between cycles, the surface was regenerated by a 30 second injection of 3M MgCl₂ at a flow rate of 30 μl/min. Values for antibody capture levels and analyte binding levels were obtained from the Report Point Table (Biacore Evaluation Software v3.0, GE Life Sciences). […] Table 16: Experiment A; Table 17: Experiment B.
(§1) Binding to recombinant human and cyno Tie2 was analyzed using a high performance multi-cycle kinetics format with a contact time of 60 seconds, a dissociation time of 60 seconds, a flow rate of 100 μl/minute and Tie2 concentrations of 5 μM, 2.5 μM, 1.25 μM, 625 nM, 313 nM and 156 nM. Tie2 concentrations of 5 μM, 2.5 μM and 1.25 μM were injected twice. Results were analyzed using Biacore T200 Evaluation Software v3.0 (GE Life Sciences). Results from all three surface densities were analyzed together using the 1:1 Binding model with multiple Rmax and the RI parameter set to zero.

Assay [2] deals with T2, recombinant cyno Tie2 extracellular domain (cynomolgus monkey, UniProt Q02763 23-748 (human entry)).
T2 construct: also called Recombinant cyno Tie2 ECD; cy Tie2
T2 chain: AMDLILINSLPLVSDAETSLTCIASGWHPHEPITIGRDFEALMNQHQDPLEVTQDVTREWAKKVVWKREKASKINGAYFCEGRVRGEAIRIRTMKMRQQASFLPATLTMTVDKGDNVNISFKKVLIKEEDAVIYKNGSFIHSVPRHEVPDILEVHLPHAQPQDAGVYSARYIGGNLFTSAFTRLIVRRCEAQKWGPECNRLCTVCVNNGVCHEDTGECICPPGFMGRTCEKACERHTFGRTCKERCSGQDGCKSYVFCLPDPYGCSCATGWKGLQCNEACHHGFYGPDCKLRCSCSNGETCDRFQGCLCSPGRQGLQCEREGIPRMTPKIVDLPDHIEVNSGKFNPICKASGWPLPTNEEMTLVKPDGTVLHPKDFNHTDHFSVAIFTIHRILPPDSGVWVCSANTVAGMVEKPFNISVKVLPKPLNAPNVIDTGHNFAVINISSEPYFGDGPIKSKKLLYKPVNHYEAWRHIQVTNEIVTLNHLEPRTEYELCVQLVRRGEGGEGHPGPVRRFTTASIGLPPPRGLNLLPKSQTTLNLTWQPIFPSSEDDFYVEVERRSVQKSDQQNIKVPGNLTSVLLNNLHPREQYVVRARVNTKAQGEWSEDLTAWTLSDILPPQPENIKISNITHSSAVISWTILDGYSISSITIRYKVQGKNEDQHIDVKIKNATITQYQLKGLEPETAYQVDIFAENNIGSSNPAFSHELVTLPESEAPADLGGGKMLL
As to the kind of experiment: SPR multi-cycle kinetics, IgG captured, kinetic analysis; cyno Tie2; kinetic analysis. As for the experimental part: as §1

The target in the next assay is T3, human Tie2ECD.flag (human, UniProt Q02763 23-748).
T3 construct: also called hTie2.flag; not shown: C-terminal Flag tag
As to the kind of experiment: Biacore, hIgG captured, 25C. In short, it runs like this:
(§2)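 Anti-Tie2 hIgGs captured on an anti-human Fc CM5 surface; human or rat Tie2ECD.flag binding monitored at 25 °C by multi-cycle kinetics, with 3 M MgCl₂ regeneration. Monovalent affinities from a 1:1 binding model fit.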

For the next assay, the target named is T4, rat Tie2ECD.flag (rat, UniProt A0ABK0L6J5 19-740).
T4 construct: extracellular domain; also called rTie2.flag; not shown: C-terminal Flag tag
As to the kind of experiment: Biacore, hIgG captured, 25C. In short, it runs like this:
as §2

Assay [3] has as its target T2, recombinant cyno Tie2 extracellular …. As to the kind of experiment: SPR, IgG captured, 37C. How it is done:
(§3) Antibodies were screened for binding to recombinant human and cyno Tie2 using a Biacore T200 instrument (GE Life Sciences). Briefly, a human antibody capture chip was generated using a Series S CM5 chip, a human antibody capture kit, and an amine coupling kit (GE Life Sciences). Antibodies diluted to 5 μg/ml were captured using a flow rate of 10 μl/minute and a contact time of 20 seconds. Binding of 300 nM and 1500 nM recombinant human and cyno Tie2 extracellular domain to the captured antibodies was analyzed at 37° C. using a single cycle kinetics method with a flow rate of 50 μl/minute, a contact time of 60 seconds and a dissociation time of 120 seconds. Between cycles, the chip was regenerated using 3M MgCl₂ injected for 30 seconds at 30 μl/minute. Data were evaluated using Biacore T200 Evaluation software (GE Life Sciences). Kinetic constants were obtained using a 1:1 binding model with the parameter RI set to zero. Selected antibodies (Table 7A-7B; ch denotes rabbit Abs; TEK denotes rat Abs) were taken forward for secondary activity screening in Fab-NDK format (see Example 8 below).

For assay [4], the target named is T1, recombinant human Tie2 extracellular …. As to the kind of experiment: SPR, IgG captured, 37C. As for the experimental part:
as §3

Assay [5] has as its target T2, recombinant cyno Tie2 extracellular …. As to the kind of experiment: SPR multi-cycle kinetics, IgG captured, kinetic analysis. As for the experimental part:
as §1

Results on one molecule are retold here after US20210332142A1 (Genentech, published 2021).

T3 sequence (Q02763 23-748 limits assumed): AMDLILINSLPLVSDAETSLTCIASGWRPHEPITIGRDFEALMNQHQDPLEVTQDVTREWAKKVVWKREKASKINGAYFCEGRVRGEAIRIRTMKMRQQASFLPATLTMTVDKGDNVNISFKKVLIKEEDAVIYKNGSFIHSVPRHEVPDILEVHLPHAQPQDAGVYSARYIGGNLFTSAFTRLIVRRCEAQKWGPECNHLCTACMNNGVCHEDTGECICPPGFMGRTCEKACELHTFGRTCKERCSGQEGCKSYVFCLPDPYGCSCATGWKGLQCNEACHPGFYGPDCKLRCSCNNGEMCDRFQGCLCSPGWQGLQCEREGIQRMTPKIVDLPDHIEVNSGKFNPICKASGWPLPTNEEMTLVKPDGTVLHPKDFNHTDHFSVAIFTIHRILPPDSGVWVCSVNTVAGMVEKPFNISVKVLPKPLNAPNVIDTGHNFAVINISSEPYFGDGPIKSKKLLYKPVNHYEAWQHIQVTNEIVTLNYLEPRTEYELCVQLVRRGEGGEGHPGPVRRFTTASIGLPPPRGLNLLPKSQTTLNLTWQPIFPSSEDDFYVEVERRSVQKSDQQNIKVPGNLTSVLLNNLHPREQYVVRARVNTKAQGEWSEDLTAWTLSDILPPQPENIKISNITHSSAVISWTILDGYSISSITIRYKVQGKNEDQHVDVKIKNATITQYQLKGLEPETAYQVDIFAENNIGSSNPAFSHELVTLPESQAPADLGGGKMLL

B1: Tie2.1 (antibody, human IgG1, V domains shown)
VH: EVQLVESGGGLVQPGGSLRLSCAASGFTFSNTDISWVRQAPGKGLEWVGRISPSDGNTYYADSVKGRFTISADTSKNTAYLQMNSLRAEDTAVYYCARRTRWASWAMDYWGQGTLVTVSS
VL: DIQMTQSPSSLSASVGDRVTITCRASQDVSTAVAWYQQKPGKAPKLLIYSASFLYSGVPSRFSGSGSGTDFTLTISSLQPEDFATYYCQQSYTTPPTFGQGTKVEIKR
notes: human IgG1 in all later assays; also called Ab1; Tie2.1.M100c
B1: the koff in assay [1] stood at 0.45 s⁻¹; in assay [3] it was 0.3 s⁻¹; in assay [4], 0.3 s⁻¹; in assay [5], 0.44 s⁻¹. The on-rate (kon) is 180000 M⁻¹ s⁻¹ in assay [1], 90000 M⁻¹ s⁻¹ in assay [3], 100000 M⁻¹ s⁻¹ in assay [4] and 150000 M⁻¹ s⁻¹ in assay [5]. Also, the Kd in assay [2] came to 3000 nM; in the assay with human Tie2ECD.flag it was 1200 nM; with rat Tie2ECD.flag, 1600 nM; in assay [3] it was 4000 nM; in assay [4], 3000 nM.
